The values that follow are results of earlier work, collected in article PMC9902533.

The target in the data set is Immunoglobulin E kappa (recombinant, clone AbD18705_hIgE, HCA190) (human) (UniProt P01854+P01834). The following applies: 10 mM HEPES pH 7.4, 0.05% Tween-20, room temperature (IgE; fibrils and exosomes same buffer); FUS: 50 mM Tris-HCl pH 7.4, 25 mM KCl, 0.02% Tween-20, on-chip ….
Chain of Immunoglobulin E kappa (recombinant, clone AbD18705_hIgE, HCA190) (human) (P01854 whole entry, chain 1 of 2, other chains not shown): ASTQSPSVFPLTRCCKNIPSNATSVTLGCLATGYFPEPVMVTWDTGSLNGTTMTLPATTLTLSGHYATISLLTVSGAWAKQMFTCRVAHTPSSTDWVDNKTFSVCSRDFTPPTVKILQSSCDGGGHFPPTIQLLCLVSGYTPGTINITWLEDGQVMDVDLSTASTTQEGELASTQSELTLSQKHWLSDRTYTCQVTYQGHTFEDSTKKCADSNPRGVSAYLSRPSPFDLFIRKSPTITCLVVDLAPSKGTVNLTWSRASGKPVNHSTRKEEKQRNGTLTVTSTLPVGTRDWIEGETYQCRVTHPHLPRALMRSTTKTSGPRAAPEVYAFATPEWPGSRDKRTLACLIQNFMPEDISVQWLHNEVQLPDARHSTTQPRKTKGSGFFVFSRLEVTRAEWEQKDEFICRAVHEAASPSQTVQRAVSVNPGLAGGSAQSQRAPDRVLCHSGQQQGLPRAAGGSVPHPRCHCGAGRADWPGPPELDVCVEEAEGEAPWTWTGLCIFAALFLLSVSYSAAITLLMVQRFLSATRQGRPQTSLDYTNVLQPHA

Consider “TGGGGCACGTTTATCCGTCCCTCCTAGTGGCGTGCCCC [IgE aptamer]”, for which the Kd was 50 nM.

In general, Kd refers to the equilibrium constant for the complex coming apart.
